Reference: FireProtDB (doi:10.1021/bi015547k)

Conditions: Pseudomonas putida; pH 7; 25 °C; Urea; CD; potassium phosphate 20 mM; reversible: yes; whole UniProt chain shown

B1: Steroid Delta-isomerase wild type, P07445 (protein)
chain: MNLPTAQEVQGLMARYIELVDVGDIEAIVQMYADDATVEDPFGQPPIHGREQIAAFYRQGLGGGKVRACLTGPVRASHNGCGAMPFRVEMVWNGQPCALDVIDVMRFDEHGRIQTMQAYWSEVNLSVREPQ
denaturant m value: 3.39 kcal/mol/M
denaturant midpoint (higher = more stable): 5.22 M
unfolding free energy: 24.3 kcal/mol
